We go through one substance from patent US20080221021A1, “Novel Corticotropin-Releasing Factor Receptor 1 (Crfr1) Agonist” (Max-Planck-Gesellschaft Zur Forderung Der, priority 2004, published 2008).

“Also recorded” adds a separate entry of the source. Where no end group is shown, it is not given here.

Series [1] can be described thus: Maximum solubility in aCSF by amino acid analysis. Type of series: physicochemical. To be noted: pH 7.4. Here is the method:
(§1) After dissolving the peptides in artificial cerebrospinal fluid (aCSF; 124 mM NaCl, 26.4 mM NaHCO3, 10 mM glucose, 3.3 mM KCl, 2.5 mM CaCl2 , 2.4 mM MgSO4 , 1.2 mM KH2PO4) at pH=7.4, the maximum solubility cmax was determined by amino acid analysis as described (21). The isoelectric point of the peptides was determined by isoelectric focusing (IEF) as described (21) with a Bio-Rad IEF cell system using Bio-Rad IEF strips in the pH range 3-10.

The next series addresses T1, mCRFR2β (Mus musculus, UniProt Q60748).
T1 construct: expressed in transfected cells
In words: Agonist-induced intracellular cAMP accumulation in HEK 293 cells producing mCRFR2β. Type of series: cell-based. Conditions: in words. The protocol: (§2) The biological potency of cortagine and OCRF was evaluated by the determination of the EC50 values for agonist-induced intracellular accumulation of cAMP in HEK 293 cells producing either rCRFR1 or mCRFR2β.
(§3) The HEK 293 cells were plated into 24 well cell culture plates and stimulated as described (21) using increasing concentrations of the agonists under investigation. Intracellular cAMP was measured with the Biotrak™ cAMP [^125I] SPA system (Amersham Pharmacia Biotech) according to the manufacturer's product manual.
Background: Cyclic AMP is a second messenger, typically raised through Gs and lowered through Gi signalling.

The next series addresses T2, rCRFR1 (Rattus norvegicus, UniProt P35353).
T2 construct: expressed in transfected cells
T2 sequence (P35353 24-415): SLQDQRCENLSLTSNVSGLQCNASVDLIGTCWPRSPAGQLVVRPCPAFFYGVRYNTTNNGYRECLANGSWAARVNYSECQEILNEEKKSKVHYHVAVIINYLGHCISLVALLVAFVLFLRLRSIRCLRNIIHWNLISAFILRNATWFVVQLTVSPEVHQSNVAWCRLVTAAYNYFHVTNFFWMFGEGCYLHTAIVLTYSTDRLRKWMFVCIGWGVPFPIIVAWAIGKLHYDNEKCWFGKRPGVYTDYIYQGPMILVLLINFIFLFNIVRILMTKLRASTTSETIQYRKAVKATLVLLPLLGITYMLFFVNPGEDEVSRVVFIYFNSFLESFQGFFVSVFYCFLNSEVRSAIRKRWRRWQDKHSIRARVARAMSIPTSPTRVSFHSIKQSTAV
In words: Agonist-induced intracellular cAMP accumulation in HEK 293 cells producing rCRFR1. Type of series: cell-based. The protocol: as §2, §3

Series [2] concerns C57BL/6J mice. The series is described as follows: Elevated plus-maze test, intraseptal (i.s.) injection. Type of series: in vivo, mouse. Conditions: 100 ng into lateral septum (i.s.), 30 min before EPM, vs aCSF. Here is the method: (§4) Nine-week old male C57BL/6J (Centre D'Elevage Janvier, Sultzfeld, France) were individually housed in macrolon cages according to the recommendations of the Society for Laboratory Animal Science (Germany). All experiments were carried out in accordance with the European Council Directive (86/609/EEC) with the permission of the Animal Protection Law enforced by the District Government of Braunschweig, State of Lower Saxony, Germany, which is in full agreement with the APA ethical guidelines. All efforts were made to minimize animal suffering. The number of mice per group was 9-11.
All peptides were dissolved in aCSF except for the CRFR2-selective antagonist antisauvagine-30 (aSvg-30) (20) that was initially dissolved in 10 mM aqueous acetic acid and diluted with the same volume of two-fold concentrated aCSF. The final pH of the peptide solutions was 7.4. The exact peptide concentration of the injection solutions was determined by amino acid analysis with a Beckman HPLC analyzer system 6300. […]
The elevated plus-maze (EPM) behavior of C57BL/6J mice cannulated in the lateral ventricles or lateral intermediate septal area (23) was investigated 30 min after injection of the CRFR1 agonist under investigation for 5 min in the EPM test (24). […] The behavior of the mice was recorded by a video camera connected to a PC and analyzed by the Technical & Scientific Equipment software VIDEOMOT 2. […]

Series [3] in a line: Isoelectric point by isoelectric focusing. Type of series: physicochemical. To be noted: IEF, pH range 3-10. Here is the method: as §1
Series [4] relates to C57BL/6J mice. In words: Forced swim test, i.c.v. injection. Type of series: in vivo, mouse. Here is the method: as §4
All peptides were dissolved in aCSF except for the CRFR2-selective antagonist antisauvagine-30 (aSvg-30) (20) that was initially dissolved in 10 mM aqueous acetic acid and diluted with the same volume of two-fold concentrated aCSF. The final pH of the peptide solutions was 7.4. The exact peptide concentration of the injection solutions was determined by amino acid analysis with a Beckman HPLC analyzer system 6300. Total hydrolysis of the peptides was carried out in the presence of 1 nmol norvaline as internal standard with 6 M HCl for 24 h at 100° C.
For the forced swim test (FST), C57BL/6J mice cannulated in the lateral ventricles were subjected to swim sessions in individual glass cylinders (height 39 cm, diameter 21.7 cm) containing water, 15-cm deep, at 23-25° C. On day 1, all animals were placed in the cylinder for a preswim session of 15 min. On the test day 24 h later (day 2), the mice were subjected to a testswim session for 6 min. The water was changed between subjects. All testswim sessions were recorded by a video camera positioned directly above the cylinder. A component observer blind to treatment scored the videotapes. The behavioral measure scored was the duration of immobility, defined as time spent still or only using righting movements to keep the head over water. An increase in immobility time was interpreted as an increase of depression-like behavior. In all behavioral experiments, the cannula placement was confirmed for each mouse by histological examination of the brains after methylene blue injection (23). The behavioral data are expressed as mean±SEM, and were analysed using a two- and one-way ANOVA, with Bonferri/Dunn test applied, post hoc, for individual between-group comparisons at the p<0.05 level of significance.

T1 sequence (Q60748 1-431 isoform Q60748-2): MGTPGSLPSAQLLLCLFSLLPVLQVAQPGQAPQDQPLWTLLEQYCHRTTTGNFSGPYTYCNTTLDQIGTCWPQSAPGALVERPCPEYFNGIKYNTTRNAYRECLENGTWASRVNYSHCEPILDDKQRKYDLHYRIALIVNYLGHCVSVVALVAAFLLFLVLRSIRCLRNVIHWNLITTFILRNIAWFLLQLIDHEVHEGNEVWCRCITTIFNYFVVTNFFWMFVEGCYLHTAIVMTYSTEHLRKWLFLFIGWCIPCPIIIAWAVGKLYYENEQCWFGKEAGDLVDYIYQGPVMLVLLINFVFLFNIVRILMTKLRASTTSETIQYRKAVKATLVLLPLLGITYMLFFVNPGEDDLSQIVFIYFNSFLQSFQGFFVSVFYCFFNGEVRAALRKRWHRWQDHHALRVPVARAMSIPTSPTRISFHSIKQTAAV

As to “[Glu^21, Ala^40] [Svg^1-12]x[h/rCRF^14-30]x[Svg^30-40] (XGPPISIDLSLELLREVLEMERAEQLAQQAANNRLLLDTA; X not resolved here; ends and bridges not checked; also: Glx at position 1 not given here (Gln/Glu/pGlu)) [cortagine]”, in series [1], the maximal solubility cmax result is recorded as “up to 1000 μM”. In addition, the “biological potency at mCRFR2β compared with rCRFR1” value in the series with mCRFR2β was “about one to two orders of magnitude lower”. The “biological potency at rCRFR1” value with rCRFR1 (cAMP accumulation, in words) is “high agonistic potency and high”. Besides, in the series with rCRFR1 (ratio of biological potencies (cAMP)), the “CRFR1-selectivity over CRFR2β, EC50(mCRFR2)/EC50(rCRFR1)” value was 89. In addition, in the series on C57BL/6J mice [2], the “anxiety-like behavior (time spent in open arms, number of open arm entries)” value is listed as “not”. Also, in series [3], the “isoelectric point pI” value is recorded as 4.8. The “immobility time during the testswim session 24 h later (day 2)” value in the series with C57BL/6J mice [4] (300 ng i.c.v. 30 min before preswim (day 1)) is “significantly reduced immobility time in comparison to oCRF-injected mice; also recorded: decrease of the immobility lime; also recorded: significant decrease”. Besides, the “immobility time during the preswim session” value in the series with C57BL/6J mice [4] (300 ng i.c.v. 30 min before preswim (day 1), vs aCSF) is given as “significantly decreased the immobility time”. The “immobility time during the testswim session” value in the series on C57BL/6J mice [4] (300 ng i.c.v. 30 min before testswim (day 2), vs aCSF) is listed as “significantly decreased the immobility time”. In the series with C57BL/6J mice [4] (mice), the “floating time in the FST” value is “reduced significantly”.
